The text below walks through data of patent US20240254196A1 (MEDYTOX, published 2024).

In assay [1] the target is T1, human IL-1β (human, UniProt P01584 117-269).
T1 construct: Bought protein; also called hIL-1β
Kind of assay: SPR, Biacore T200; binder captured by anti-human Fc, cytokine injected; 1:1 Langmuir. The protocol: (§1) In order to analyze binding capacity of PET101 to IL-1α and IL-1β more quantitatively, surface plasmon resonance analysis was performed by using Biacore T200 (GE healthcare). A Series S CM5 Sensor Chip (GE healthcare, BR100530) was used to measure the binding constant, and the anti-human Fc antibodies included in the Human Antibody Capture Kit (GE healthcare, BR100839) were immobilized to the sensor chip according to the manufacturer's manual by using an amine coupling kit (GE healthcare, BR100050). Flow cell 1 of the CM5 sensor, to which anti-human Fc antibodies were immobilized, was used as a blank space, and in Flow cells 2, 3, and 4, 100 nM of PET101 (18 μg/ml), 100 nM of rilonacept (25 μg/ml), and 100 nM of canakinumab (15 μg/ml) were respectively loaded for 1 minute at a flow rate of 10 μl/min. After preparation of all the flow cells, 0.25 nM, 0.5 nM, 1 nM, 2 nM, 4 nM, and 8 nM of human IL-1α (R&D systems, 200-LA), human IL-1β (R&D systems, 201-LB), and mouse IL-1α (R&D systems, 400-ML), mouse IL-1β (R&D systems, 401-ML), and rhesus monkey (Rhesus macaque) IL-1β (R&D systems, 1318-RL) antigens were injected at a flow rate of 30 μl/min, to carry out a binding reaction for 4 minutes, subsequently, only 1×HBS-EP+ buffer (GE healthcare, BR100669) was injected at a flow rate of 30 μl/min to perform a dissociation reaction for 10 minutes. Affinity was calculated by performing normalization and subtraction in each acquired sensorgram comparing with the blank cell. The BIAevaluation software (GE healthcare) was used for affinity calculation, and the association rate constant and dissociation rate constant were calculated through the 1:1 Langmuir model analysis. An equilibrium dissociation constant (KD) is a value obtained by dividing the dissociation rate constant (Kd) by the association rate constant (Kₐ).

Assay [2] addresses T2, rhesus monkey (Rhesus macaque) IL-1β (rhesus monkey (Rhesus macaque), UniProt P48090 117-269).
T2 construct: Bought protein; also called Monkey IL-1β; monkey IL-1β
The assay is described as above. The protocol:
as §1

For assay [3], the target named is T1, human IL-1β. The assay can be described thus: ELISA, human IL-1β coated at 30 ng/well, detection with anti-human IgG Fc-HRP, OD 450 nm. Here is the method:
An analysis of binding of three types of IL-1 specific Fc fusion proteins (rilonacept, IL1T, PET101) to human IL-1β was performed by using an ELISA method. For comparison of binding capacity, human IL-1β antibody canakinumab was used as a control. […] Next day, the plate was washed with Phosphate Buffered Saline with Tween-20 (PBST; TEKNOVA, P1192). All washing procedures in this analysis were performed by using an AquaMax 2000 plate washer (Molecular Devices, 0310-5363). IL1T, PET101, rilonacept, and canakinumab were diluted in PBST containing 1% (w/v) skim milk to an appropriate concentration and treated in each well, binding was induced at room temperature for 1 hour, and plate was washed 3 times. Thereafter, peroxidase-bound anti-human IgG Fc goat antibodies (Invitrogen 31413) were diluted (1:10,000) in PBST containing 1% (w/v) skim milk to induce binding, and washed 3 times with PBST, and then color reaction was induced by treating 3,3′,5,5′-tetramethylbenzidine (TMB) substrate solution (Thermo Fisher Scientific, 34028) in the dark at room temperature. Thereafter, the reaction was terminated by treatment with 1N of sulfuric acid (DUKSAN, 255), and absorbance was measured at 450 nm by using a SpctraMax i3 multimode plate reader (Molecular Devices, 10192-220).

B1: canakinumab (antibody)
chain 1: not shown
chain 2: EIVLTQSPDFQSVTPKEKVTITCRASQSIGSSLHWYQQKPDQSPKLLIKYASQSFSGVPSRFSGSGSGTDFTLTINSLEAEDAAAYYCHQSSSLPFTFGPGTKVDIKRTVAAPSVFIFPPSDEQLKSGTASVVCLLNNFYPREAKVQWKVDNALQSGNSQESVTEQDSKDSTYSLSSTLTLSKADYEKHKVYACEVTHQGLSSPVTKSFNRGEC
For B1, in assay [1], the Kd is 0.0684 nM, the off-rate (koff) amounted to 5.21e-05 s⁻¹ and the kon is 762000 M⁻¹ s⁻¹. In assay [2], this molecule came in with a Kd of 2850 nM, a koff of 0.0181 s⁻¹ and a kon of 6350 M⁻¹ s⁻¹. Also, the EC50 in assay [3] was 0.0882 nM.
